This note sets out measurements from a protein production outcome set (Wang et al. 2014).

This series in a line: label from the status in PepcDB records.
Consider “MRKLLLGLSALTLATASAAAAQDPGPAAPVQYEVAFPNATHREARITATFRKVPKGALQLRMSRSSPGRYAIHEFAKNVYQVTAVDGAGKPLKVDRAEPYGWSVSGHDGTVKVTYTLYADRGDGTYSQIDTTHAHLNMPATFLWAVGYHDKPIRVRFERADPSWKIATQLPPVAGQPDSFWAPNLQYFMDSPTELSAMTVREWKVTDKGRDYTFRLALHHTGTEADADTFAEKLKAIVPEHIKVFGELPKFDYGEYTFIADYMPQITGDGMEHRNSTFISQPRSLFRGNFSQLGTASHELFHAWNVERIRPAELEPFDFTKANPTPSLWLAEGFTQYYGPLLIRRAGQSSMDEFLTGLSGTLNGVVNGPGRLYGSPQEMSLRAPFVDAAAALDPVNPNIFTSYYPYGAVIGLALDLQLRGRDKPLSLDDFMKQMWRAHGVTEKPYTPADVRAALAKTTGDQAFADAFFKASIEGSALPDFAPLLERAGLKLRQKAPKKAWLGAARVKVSGTELLLDAPPVPNSPLYGAGVEVGDRIISIGRFVFANESDWTDALDRLKPGEAMTVQFIQRGQVREAPMTIAADPTLEVVRFEKVDLKPTEAQLAFRTAWLGAEAEAAK”, for which the protein production result is on record as “failed”.
Regarding “MRKRARIIYNPTSGKELFKRELPDALIKLEKAGYETSAYATEKIGDATLEAERAMHENYDVLIAAGGDGTLNEVVNGIAEKPNRPKLGVIPMGTVNDFGRALHIPNDIMGALDVIIEGHSTKVDIGKMNNRY”, the protein production entry is reported as “failed”.
Then “MRKSFNLIWMVFGFLLLIVGCNEDKKSTAFDPNQPVKFTEFMPDSGGIRTKFIVKGSNFGEDKSQVKVYFKDEVGNEREALVLGVKPDVIYAQVPKQAGGESHVRVEIAGKEAELSNAEKTFKYIVTSSVSTVVGKAKEGGNKDGTLGETTFNTPRYVAVDNDDNVFIFDSDGRTRLSSIEQNKTITLLDGMVIDQPLFIDKEKKQLFGPCDNANFGCFLFDANVSWVADKMGQLLANGGWMHSVVLDPVDSTFVIYRQNTGQLWTQPFDKNRRTLNPNKAKRIGTLYNTGSNGLCAYNPVDKYVYCVLHSKSAVYRFKLTRDADGWPALDGDIDEYIPGAGAGFRDGDVQEAQFKEPRGIAIDKEGNLYIADVGNNRIRKVDTKLNVVTTIAGSGAAGYKDGDPLEAQFNQPWGVYLDKNEFLYIADQNNHCIRKLAIE”, with “failed”.
Then “MRKVLLTIRKIAMTQPTSRKADLVYQLNDRPPLPQTLFAALQHLLAMFVAVITPSLIICQSLGVPADQTNTIISMSLFASGLSSFIQIRTFGPIGSGLLSIQGTSFNFLGPIIGAGLALKAGGADIETMMAAIFGTILVASSAEILLSRVLQFAQRIITPLVSGIVVTLIGLTLVQVGLISMGGGYAAMADGSFGSLDKLALAGTVLAIIVLLNRAHNPYVRVASIVIAMLVGYVMAYLMGMVNTDNLAETQFIALPIPMQYGLGFDWSLFIPLVLIFLITALEAIGDITATSEVSGEPVKGPVYMKRIKGGVLADGLNSALAAVFNSFPNSTFSQNNGVILLTGVASRYVGYFIAGMLVLLGLFPGVASFVQLIPEPVLGGATIVMFGTIAAAGVRIISRVDLDRRAILIMALSFSMGLGIAQKPEILQFMPEFIKNLFSSGVAAGGITAIVLNLLLPEVRRDEDAASVAKTEAAQESN”, with “failed”; and “MRKVLMFLSTALLLAILSLSFTGLDLKAKAASDLYPLPAPIIDVFPDDGLAKDMAKNLNKDSVNDVIDQDDLDALTGLGFETSTITNDSMQLLERAMFNNVTDVSIMEFGAKLTEFPDITTIPHLKTLFFADPPGRLTRNLSLPNYQNYPEMDTITMSGNNLIGSIPDFTGMPALKQLYMSEMLITSDELPNFNNIPLLITLDLSSNQLTTIPDFQNIPNLTFLDLNANLLTNTPDFQNLPKLTDLNLRHNNLTGTMVNYTNLPSLESLNLDYNFLTELPSNVLDTIYVQSQNGELPDQTINQGDTCTIDLPIYFQMEETNMLVSPEVTGEYIGISVIQLPTTVNEEGNTITVDTSALSPGEYKLDVSYNHNYATGGVCSYDWNVTIN”, with “failed”.
The entry for “MRKVQVLVQTRDGKKTVYEVDRLGTVASLKARIGQVMSVPMGFSRLSYKGRVLSNQSVLEDLGPNKSTLDLTWKPVVLTANQSSKLSKFGYGRIDDSEVMFTLIGGYQQREEYPGGLVNPPDDESQLNFNAGDDDDALEAQDMTGHDLSSIQTDDLSLKGQTEPELDCSIGSHGFSGSQEEGHE” is “failed”; for “MRKVRIANEQTEESDIIKIVHLSDIHFSEAYYMPEIADSMLQIINESSPDIVIITGDLTENGFAAEYNGAKNFIDKIECKNKVIVPGNHDSKNAGYLFFEDIFKARSSSGYFGDVTVIGLDSSQPELDDGHIGRENYGWIESTFSTGSFKVFALHHHLIPIPKTGRGNNVLVDAGDVLELLDRSGVNLVLCGHWHIPWVWRLNDMFIISAGTVCSSKIRGKTSQCYNLIELETPESECTRWHLRITRVFSSGIKELVVDNIV” it is “failed”.
Consider “MRKYLAEFLGTFMLVFLGTATVVIAKGDVLAIGLAFGLAITVSAYAFGGISGGHFNPAVTTAMLINRRIDAADAIGYIIAQIIGAIVASAAVKSFVSALGLSATLLGQTDFPKIGSGMAFFVEALVTFLFLMVILNVTSNDHGNADFAGLTIGVTLAFLIIVALNLTGGSLNPARSIGPAIFAGGSALSHLWVYILAPEVGAILAAFCARVMGSED”, for which the protein production result is given as “failed”.
Then “MRLEGEGRSARAGQNLSRAGSARRGAPRDLSMNNLTELQPGLFHHLRFLEELRLSGNHLSHIPGQAFSGLYSLKILMLQNNQLGGIPAEALWELPSLQSLDLNYNKLQEFPVAIRTLGRLQELGFHNNNIKAIPEKAFMGNPLLQTIHFYDNPIQFVGRSAFQYLPKLHTLSLNGAMDIQEFPDLKGTTSLEILTLTRAGIRLLPSGMCQQLPRLRVLELSHNQIEELPSLHRCQKLEEIGLQHNRIWEIGADTFSQLSSLQALDLSWNAIRSIHPEAFSTLHSLVKLDLTDNQLTTLPLAGLGGLMHLKLKGNLALSQAFSKDSFPKLRILEVPYAYQCCPYGMCASFFKASGQWEAEDLHLDDEESSKRPLGLLARQAENHYDQDLDELQLEMEDSKPHPSVQCSPTPGPFKPCEYLFESWGIRLAVWAIVLLSVLCNGLVLLTVFAGGPVPLPPVKFVVGAIAGANTLTGISCGLLASVDALTFGQFSEYGARWETGLGCRATGFLAVLGSEASVLLLTLAAVQCSVSVSCVRAYGKSPSLGSVRAGVLGCLALAGLAAALPLASVGEYGASPLCLPYAPPEGQPAALGFTVALVMMNSFCFLVVAGAYIKLYCDLPRGDFEAVWDCAMVRHVAWLIFADGLLYCPVAFLSFASMLGLFPVTPEAVKSVLLVVLPLPACLNPLLYLLFNPHFRDDLRRLRPRAGDSGPLAYAAAGELEKSSCDSTQALVAFSDVDLILEASEAGRPPGLETYGFPSVTLISCQQPGAPRLEGSHCVEPEGNHFGNPQPSMDGELLLRAEGSTPAGGGLSGGGGFQPSGLAFASHV”, with “failed”.
Then “MRLEKFIHLLGERGFDGALISPGTNLYYLTGLRLHEVGERLAILAVSAEGDYRFLAPSLYENVVNNFPATFWHDGENPYAKLREILEELGISKGRILIEDTMRADWLIGIMKLGKFTFQPLSSLIKELRMIKDKEEVKMMEHASRIADKVFEEILTWDLIGMKERELALKIELLIRELSDGIAFEPIVASGENAANPHHEPGERKIRKGDIIILDYGARWKGYCSDITRTIGLGELDERLVKIYEVVKDAQESAFKAVREGIKAKDVDSRAREVISKAGYGEYFIHRTGHGLGLDVHEEPYIGPDGEVILKNGMTFTIEPGIYVPGLGGVRIEDDIVVDEGKGRRLTKAERELIIL”, with “not failed”; and “MRLFSIPPPTLLAGFLAVLIGYASSAAIIWQAAIVAGATTAQISGWMTALGLAMGVSTLTLTLWYRVPVLTAWSTPGAALLVTGLQGLTLNEAIGVFIVTNALIVLCGITGLFARLMRIIPHSLAAAMLAGILLRFGLQAFASLDGQFTLCGSMLLVWLATKAVAPRYAVIAAMIIGIVIVIAQGDVVTTDVVFKPVLPTYITPDFSFAHSLSVALPLFLVTMASQNAPGIAAMKAAGYSAPVSPLIVFTGLLALVFSPFGVYSVGIAAITAAICQSPEAHPDKDQRWLAAAVAGIFYLLAGLFGSAITGMMAALPVSWIQMLAGLALLSTIGGSLYQALHNERERDAAVVAFLVTASGLTLVGIGSAFWGLIAGGVCYVVLNLIADRNRY”, with “failed”.
Then “MRLLISLIAGALFGGGLFVSGMTDTRKVQGWLDVFGDWDPTLAFVMGGAILPMLLAWRLTEGRKPLAGGSFPALPRPEMDHRLITGSVLFGMGWGLAGLCPGPAIASLSYGGVGGLIFLVAMLAGMAVAPRVGTQLDRLAATA”, with “failed”.
